{
  "source": "the supplement of paper PMC6755084",
  "parents": {"B1": {"name": "minF1; the commonest letter at each place (parent)", "chain": "GAGACCGCAACTGAAAAGTTGTTATCAGAAATGGATGGGTTGAATTTCTGCACGTAGAAGCAAAAGGC"}},
  "data": [
    {"variants_of": "B1", "assay": "fraction ligated after 30 min (ligated reads / total reads); higher = more ligase activity", "settings": "with F1*subA RNA substrate (template-directed ligation), 42 °C", "summary_of_the_method": "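Templates from an oligo pool encoding minimized ligase ribozyme variants were amplified by PCR, transcribed with T7, and purified on gels. Gel electrophoresis separated ligated from unligated RNAs, which were then reverse transcribed using barcoded primers and sequenced on a MiSeq, keeping core bases with quality ≥30. For each variant, fraction ligated equals ligated reads divided by total reads.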", "values": [
      {"variant": "GAGACCGCAACTGAAAAGTTGTTATCAGAAATGGATGGGTTAAATTTCTGCACGTAGAAGCAAAAGGC", "fraction ligated": 0.364},
      {"variant": "GAGACCGCAACTGAAAAGTTGTTATCAGAAATGGATGGGTTCAATTTCTGCACGTAGAAGCAAAAGGC", "fraction ligated": 0.0127},
      {"variant": "GAGACCGCAACTGAAAAGTTGTTATCAGAAATGGATGGGTTAATTTTCTGCACGTAGAAGCAAAAGGC", "fraction ligated": 0.0746},
      {"variant": "GAGACCGCAACTGAAAAGTTGTTATCAGAAATGGATGGGTTAACTTTCTGCACGTAGAAGCAAAAGGC", "fraction ligated": 0.024},
      {"variant": "GAGACCGCAACTGAAAAGTTGTTATCAGAAATGGATGGGTTAAGTTTCTGCACGTAGAAGCAAAAGGC", "fraction ligated": 0.0717},
      {"variant": "GAGACCGCAACTGAAAAGTTGTTATCAGAAATGGATTGGTTGATTTTCTGCACGTAGAAGCAAAAGGC", "fraction ligated": 0.0093},
      {"variant": "GAGACCGCAACTGAAAAGTTGTTATCAGAAATGGATTGGTTGAGTTTCTGCACGTAGAAGCAAAAGGC", "fraction ligated": 0.0087},
      {"variant": "GAGACCGCAACTGAAAAGTTGTTATCAGAAATGGATTGGTTGACTTTCTGCACGTAGAAGCAAAAGGC", "fraction ligated": 0.00343},
      {"variant": "GAGACCGCAACTGAAAAGTTGTTATCAGAAATGGATGGGTGGAATTTCTGCACGTAGAAGCAAAAGGC", "fraction ligated": 0.146},
      {"variant": "GAGACCGCAACTGAAAAGTTGTTATCAGAAATGGATGGGTAGAATTTCTGCACGTAGAAGCAAAAGGC", "fraction ligated": 0.689},
      {"variant": "GAGACCGCAACTGAAAAGTTGTTATCAGAAATGGATGGGTCGAATTTCTGCACGTAGAAGCAAAAGGC", "fraction ligated": 0.86},
      {"variant": "GAGACCGCAACTGAAAAGTTGTTATCAGAAATGGATGGGTTCCATTTCTGCACGTAGAAGCAAAAGGC", "fraction ligated": 0.00394},
      {"variant": "GAGACCGCAACTGAAAAGTTGTTATCAGAAATGGATGGGTTAGGTTTCTGCACGTAGAAGCAAAAGGC", "fraction ligated": 0.00352},
      {"variant": "GAGACCGCAACTGAAAAGTTGTTATCAGAAATGGATGGGTTAGCTTTCTGCACGTAGAAGCAAAAGGC", "fraction ligated": 0.00251},
      {"variant": "GAGACCGCAACTGAAAAGTTGTTATCAGAAATGGATGGGTTAGTTTTCTGCACGTAGAAGCAAAAGGC", "fraction ligated": 0.00363},
      {"variant": "GAGACCGCAACTGAAAAGTTGTTATCAGAAATGGATCGGTTCAATTTCTGCACGTAGAAGCAAAAGGC", "fraction ligated": 0.00331},
      {"variant": "GAGACCGCAACTGAAAAGTTGTTATCAGAAATGGATCGGTTTAATTTCTGCACGTAGAAGCAAAAGGC", "fraction ligated": 0.00137},
      {"variant": "GAGACCGCAACTGAAAAGTTGTTATCAGAAATGGATCGGTTAAATTTCTGCACGTAGAAGCAAAAGGC", "fraction ligated": 0.00281},
      {"variant": "GAGACCGCAACTGAAAAGTTGTTATCAGAAATGGATGGGTTCCCTTTCTGCACGTAGAAGCAAAAGGC", "fraction ligated": 0.00224},
      {"variant": "GAGACCGCAACTGAAAAGTTGTTATCAGAAATGGATGGGTTCCGTTTCTGCACGTAGAAGCAAAAGGC", "fraction ligated": 0.00342},
      {"variant": "GAGACCGCAACTGAAAAGTTGTTATCAGAAATGGATGGGTTCCTTTTCTGCACGTAGAAGCAAAAGGC", "fraction ligated": 0.00191},
      {"variant": "GAGACCGCAACTGAAAAGTTGTTATCAGAAATGGATGGGTTACATTTCTGCACGTAGAAGCAAAAGGC", "fraction ligated": 0.0101},
      {"variant": "GAGACCGCAACTGAAAAGTTGTTATCAGAAATGGATGGGTTATATTTCTGCACGTAGAAGCAAAAGGC", "fraction ligated": 0.00678},
      {"variant": "GAGACCGCAACTGAAAAGTTGTTATCAGAAATGGATGGGTTAGATTTCTGCACGTAGAAGCAAAAGGC", "fraction ligated": 0.0596},
      {"variant": "GAGACCGCAACTGAAAAGTTGTTATCAGAAATGGATGGGTTATCTTTCTGCACGTAGAAGCAAAAGGC", "fraction ligated": 0.00312},
      {"variant": "GAGACCGCAACTGAAAAGTTGTTATCAGAAATGGATGGGTTATGTTTCTGCACGTAGAAGCAAAAGGC", "fraction ligated": 0.000353},
      {"variant": "GAGACCGCAACTGAAAAGTTGTTATCAGAAATGGATGGGTTATTTTTCTGCACGTAGAAGCAAAAGGC", "fraction ligated": 0.00133},
      {"variant": "GAGACCGCAACTGAAAAGTTGTTATCAGAAATGGATTGGTTGGATTTCTGCACGTAGAAGCAAAAGGC", "fraction ligated": 0.00602},
      {"variant": "GAGACCGCAACTGAAAAGTTGTTATCAGAAATGGATTGGTTGCATTTCTGCACGTAGAAGCAAAAGGC", "fraction ligated": 0.00313},
      {"variant": "GAGACCGCAACTGAAAAGTTGTTATCAGAAATGGATTGGTTGTATTTCTGCACGTAGAAGCAAAAGGC", "fraction ligated": 0.00731},
      {"variant": "GAGACCGCAACTGAAAAGTTGTTATCAGAAATGGATGGGTTACGTTTCTGCACGTAGAAGCAAAAGGC", "fraction ligated": 0.00203},
      {"variant": "GAGACCGCAACTGAAAAGTTGTTATCAGAAATGGATGGGTTACCTTTCTGCACGTAGAAGCAAAAGGC", "fraction ligated": 0.00102},
      {"variant": "GAGACCGCAACTGAAAAGTTGTTATCAGAAATGGATGGGTTACTTTTCTGCACGTAGAAGCAAAAGGC", "fraction ligated": 0.00211},
      {"variant": "GAGACCGCAACTGAAAAGTTGTTATCAGAAATGGATTGGTTGAATTTCTGCACGTAGAAGCAAAAGGC", "fraction ligated": 0.0174},
      {"variant": "GAGACCGCAACTGAAAAGTTGTTATCAGAAATGGATTGGTTTAATTTCTGCACGTAGAAGCAAAAGGC", "fraction ligated": 0.00146},
      {"variant": "GAGACCGCAACTGAAAAGTTGTTATCAGAAATGGATTGGTTCAATTTCTGCACGTAGAAGCAAAAGGC", "fraction ligated": 0.00492},
      {"variant": "GAGACCGCAACTGAAAAGTTGTTATCAGAAATGGATTGGTTAAATTTCTGCACGTAGAAGCAAAAGGC", "fraction ligated": 0.00778},
      {"variant": "GAGACCGCAACTGAAAAGTTGTTATCAGAAATGGATCGGTTGATTTTCTGCACGTAGAAGCAAAAGGC", "fraction ligated": 0.00681},
      {"variant": "GAGACCGCAACTGAAAAGTTGTTATCAGAAATGGATCGGTTGACTTTCTGCACGTAGAAGCAAAAGGC", "fraction ligated": 0.00161},
      {"variant": "GAGACCGCAACTGAAAAGTTGTTATCAGAAATGGATCGGTTGAGTTTCTGCACGTAGAAGCAAAAGGC", "fraction ligated": 0.00293}
    ]}
  ]
}
